± gives the uncertainty stated by the source.
B1: Activity-dependent neuroprotector homeobox protein, residues 770 to 810; numbered along this chain, Q9H2P0 (parent)
chain: FLTKYFNKQPYPTRREIEKLAASLWLWKSDIASHFSNKRKK

Variants of: B1
Assay: abundance fitness (aPCA) (normalised: wild type 0, dead -1); higher = more abundant; growth selection in yeast, the domain comes from the species named
Details: Homo sapiens

| Variant | abundance fitness |
| --- | --- |
| FLTKYFNKQPYPTRREIEKLAASLWLWKIDIASHFSNKRKK [S29I] | 0.031 ± 0.2 |
| FLTKYFNKQPYPTRREIEKLAASLWLEKSDIASHFSNKRKK [W27E] | -0.74 ± 0.33 |
| FLTKYFNKQPYPTRREIEKLAASLWLWKRDIASHFSNKRKK [S29R] | -0.088 ± 0.073 |
| FLTKYFNKQPYPTRREIEKLAASLWLWKSDIASHFSNKRKG [K41G] | -0.135 ± 0.071 |
| FLTKYFNKQPYPTHREIEKLAASLWLWKSDIASHFSNKRKK [R14H] | -0.514 ± 0.42 |
| FLTKYFNKQPYPTRREIEKLAAALWLWKSDIASHFSNKRKK [S23A] | -0.177 ± 0.079 |
| FLTKYFNKQPYPTRRMIEKLAASLWLWKSDIASHFSNKRKK [E16M] | -0.04 ± 0.13 |
| FLTKYFNKQPYFTRREIEKLAASLWLWKSDIASHFSNKRKK [P12F] | -0.402 ± 0.12 |
| FLTKYFNKQPYPTRREIEKLATSLWLWKSDIASHFSNKRKK [A22T] | -0.087 ± 0.087 |
| FLTKYFNKLPYPTRREIEKLAASLWLWKSDIASHFSNKRKK [Q9L] | -0.149 ± 0.065 |
| FLTKIFNKQPYPTRREIEKLAASLWLWKSDIASHFSNKRKK [Y5I] | -0.094 ± 0.098 |
| FLLKYFNKQPYPTRREIEKLAASLWLWKSDIASHFSNKRKK [T3L] | -0.759 ± 0.084 |
| FLTKYFNKQPYPTRREIEKLAASLWLWKSDIAQHFSNKRKK [S33Q] | -0.033 ± 0.062 |
| FLTKYFNKQPYPTRREIEKLAASLWLWKSDIASHHSNKRKK [F35H] | -0.237 ± 0.052 |
| FLTKYFNKQPYPTRREIEKLAASLWLWKSDIASHFINKRKK [S36I] | -0.091 ± 0.082 |
| FLTKYFNKQPYPTRREIEKLACSLWLWKSDIASHFSNKRKK [A22C] | -0.229 ± 0.11 |
| FLTKYFNKQPYPTRREIEKLAASLWFWKSDIASHFSNKRKK [L26F] | 0.069 ± 0.088 |
| FLTKYFNKQPYPTRREIEKLYASLWLWKSDIASHFSNKRKK [A21Y] | -0.177 ± 0.088 |
| FLTKYFNKQPYPTRREIEKLAASLWLWKSDIASHQSNKRKK [F35Q] | -0.238 ± 0.057 |
| FLTKYFNKWPYPTRREIEKLAASLWLWKSDIASHFSNKRKK [Q9W] | -0.823 ± 0.38 |
| FLTKYFNKQPYPTRREIEKLAASLWLWKSDIASHFSHKRKK [N37H] | -0.072 ± 0.071 |

| Variant | abundance fitness |
| --- | --- |
| FLTKYFNKQPYPTRREIEKLAASLWLWKSDIASHFSNTRKK [K38T] | -0.229 ± 0.056 |
| FLTKYFNKQPYPTRREIEKLAASLWLWKSDIASHFSNKLKK [R39L] | 0.031 ± 0.048 |
| FLTKYFNKQPYPTRREIEKLAASLWLKKSDIASHFSNKRKK [W27K] | 0.067 ± 0.06 |
| FLTKYFNKQPYPTRREIEKLAASLWLWKGDIASHFSNKRKK [S29G] | -0.014 ± 0.057 |
| FLTKYFNKQPYPTRREIIKLAASLWLWKSDIASHFSNKRKK [E18I] | -0.749 ± 0.49 |
| FLTKYFNGQPYPTRREIEKLAASLWLWKSDIASHFSNKRKK [K8G] | -0.217 ± 0.077 |
| FLTKYFTKQPYPTRREIEKLAASLWLWKSDIASHFSNKRKK [N7T] | -0.215 ± 0.053 |
| RLTKYFNKQPYPTRREIEKLAASLWLWKSDIASHFSNKRKK [F1R] | -1.12 ± 0.33 |
| FLTKYFNKQPYPTRREIEKLAASLWDWKSDIASHFSNKRKK [L26D] | -0.004 ± 0.075 |
| FCTKYFNKQPYPTRREIEKLAASLWLWKSDIASHFSNKRKK [L2C] | -0.571 ± 0.077 |
| FLTKYFNKQPYPTRREIEKLAASLWLWKSDIASHASNKRKK [F35A] | -0.119 ± 0.044 |
| FLTKYFNKQPYPTRVEIEKLAASLWLWKSDIASHFSNKRKK [R15V] | -0.149 ± 0.13 |
| FLDKYFNKQPYPTRREIEKLAASLWLWKSDIASHFSNKRKK [T3D] | -0.291 ± 0.069 |
| FLTKYFNKQPYPTRREIEKLAASLWLWKSDEASHFSNKRKK [I31E] | -0.23 ± 0.091 |
| FLTKYFNKQPYPTRREIEKLAASLWLWKSDIASHNSNKRKK [F35N] | -0.205 ± 0.067 |
| FLTKYFNKQPYPTRREIEKLAASQWLWKSDIASHFSNKRKK [L24Q] | -0.783 ± 0.22 |
| FLTKYFNKQPYPTRREIETLAASLWLWKSDIASHFSNKRKK [K19T] | -0.302 ± 0.06 |
| FLTKYFNKQPYPTRREIEKLADSLWLWKSDIASHFSNKRKK [A22D] | -0.25 ± 0.11 |
| FLTGYFNKQPYPTRREIEKLAASLWLWKSDIASHFSNKRKK [K4G] | -1.07 ± 0.24 |
| FLTKYFNKQPYPTRREIEKLAASLWLWKSWIASHFSNKRKK [D30W] | -0.01 ± 0.077 |
| FLTKYFNKQPYPGRREIEKLAASLWLWKSDIASHFSNKRKK [T13G] | 0.16 ± 0.051 |

| Variant | abundance fitness |
| --- | --- |
| FLTKYFNKQPYPTRREIEKYAASLWLWKSDIASHFSNKRKK [L20Y] | 0.064 ± 0.12 |
| FLTKYFNKQPYPTRREIEKLAASLWLWKSDNASHFSNKRKK [I31N] | -0.153 ± 0.072 |
| FLTKYFNKQPYPTRREIEHLAASLWLWKSDIASHFSNKRKK [K19H] | -0.413 ± 0.17 |
| FLTKYFNKQPYPTRREIEKLAASLWLWKQDIASHFSNKRKK [S29Q] | 0.173 ± 0.056 |
| FLTKYFNKQPYPTRREIEKLAASLWLWKSDIASNFSNKRKK [H34N] | -0.107 ± 0.096 |
| FLTKYFNKQPYPTRREIEKLAASLWLWKSDIASHFSSKRKK [N37S] | -0.019 ± 0.049 |
| FLTKYFNKQPYPTRREIEVLAASLWLWKSDIASHFSNKRKK [K19V] | -0.502 ± 0.082 |
| FLTKYFNKQPYPTRHEIEKLAASLWLWKSDIASHFSNKRKK [R15H] | -0.384 ± 0.11 |
| FLTKYFNKQPYPTRREIEKLAASLWLWKSDIAGHFSNKRKK [S33G] | -0.023 ± 0.051 |
| FLTKYFNKQPYPTRREIEKLAASLWLWKSDIASSFSNKRKK [H34S] | -0.02 ± 0.048 |
| FLTKYFNKQPYPTRREIEKLAASLWLWKSDWASHFSNKRKK [I31W] | -0.129 ± 0.086 |
| FLTKYFNKQPGPTRREIEKLAASLWLWKSDIASHFSNKRKK [Y11G] | 0.293 ± 0.051 |
| FLTKYFNAQPYPTRREIEKLAASLWLWKSDIASHFSNKRKK [K8A] | -1.12 ± 0.094 |
| FLTKYFNKQPYPTRREIEKLAASLWLQKSDIASHFSNKRKK [W27Q] | -0.492 ± 0.13 |
| FLTKYFNKQPYPTRREIEKLAASLWLWKSDIASHFSNKRKV [K41V] | -0.309 ± 0.078 |
| FLTKYFNKQPYPTRREIEKLAASLWLWKSDIASHFSNYRKK [K38Y] | -0.433 ± 0.1 |
| FLTKYFNKQPYPTRREIEKLAASLWLWKSDIAKHFSNKRKK [S33K] | 0.044 ± 0.085 |
| FLTKYFNKQPYPTRREIEKLKASLWLWKSDIASHFSNKRKK [A21K] | 0.138 ± 0.058 |
| FLTKYFNKVPYPTRREIEKLAASLWLWKSDIASHFSNKRKK [Q9V] | -0.269 ± 0.15 |
